According to patent US20250043302A1, “MUTATED HYDROXYPHENYLPYRUVATE DIOXYGENASE POLYPEPTIDE, AND CODING GENE AND USE THEREOF” (BEIJING DABEINONG BIOTECHNOLOGY CO., LTD., priority 2021, published 2025):
Positions count from the first letter of the chain named. Names and notes keep the numbering of the source.

B1: GmHPPDm-F372A-F383W-02: nucleotide sequence encoding Glycine max HPPD with F372A+F383W; vector DBN11749 (nucleic acid)
DNA: ATGCCAATGTACACACCATCGCTCTCCGCCCCTTCTTCCAACCATATTCAGCCATCCGTGACTCTGCCTCTCTACATCACAACCACCAAGTTGAACCTGAAGCAGCAGCACCATACGACTCCTATGCCTATACCCATGTGCAATGAGATCCAAGCACAGGCTCAGGCACAAGCTCAACCCGGATTCAAACTCGTGGGATTCAAGAACTTCGTCCGTACCAATCCAAAATCTGACCGCTTCCAGGTGAACAGATTCCACCACATAGAGTTTTGGTGTACTGATGCAACGAATGCTTCGAGGAGGTTTTCATGGGGCTTAGGCATGCCGATTGTAGCAAAGTCAGACCTTTCTACAGGGAACCAAATTCATGCAAGCTATCTGCTCCGCTCAGGTGATTTGTCTTTCTTGTTCTCAGCTCCATATTCTCCATCATTATCTGCTGGGTCATCAGCAGCATCTAGTGCGTCGATCCCTAGCTTTGATGCCGCCACCTGCCTCGCCTTCGCCGCCAAACATGGATTTGGTGTTCGCGCCATTGCTCTTGAGGTTGCCGATGCCGAGGCTGCTTTTAGCGCCTCCGTCGCCAAGGGAGCTGAGCCTGCGTCACCTCCTGTTCTTGTTGATGATCGAACTGGTTTTGCTGAAGTGCGTCTTTACGGCGACGTGGTGCTCAGATATGTTAGTTACAAGGATGCTGCTCCTCAAGCGCCGCACGCTGATCCTTCAAGATGGTTTCTTCCGGGGTTTGAGGCCGCTGCTAGTTCATCTTCCTTCCCGGAGTTGGATTACGGCATACGGCGGCTTGACCATGCTGTCGGCAATGTTCCTGAGCTTGCTCCGGCGGTACGGTACTTGAAAGGTTTCTCCGGGTTCCATGAATTTGCAGAGTTCACGGCGGAAGATGTTGGAACAAGTGAAAGCGGATTGAATTCTGTTGTTTTGGCCAACAACAGTGAAACTGTTCTGCTCCCCCTCAATGAACCAGTTTATGGCACAAAGCGCAAGAGCCAGATTGAAACATATCTCGAGCACAATGAAGGCGCCGGCGTCCAGCATCTTGCTTTGGTGACTCATGATATCTTCACAACACTTAGGGAGATGAGGAAGAGGAGTTTCCTCGGCGGGTTTGAATTCATGCCCAGTCCCCCGCCGACCTACTATGCAAATCTGCACAACAGGGCTGCAGATGTGCTGACTGTAGACCAGATCAAGCAATGTGAAGAACTTGGAATTTTAGTGGATAGAGACGACCAAGGTACACTACTTCAAATAGCCACCAAACCAGTCGGTGACAGACCAACAATTTGGATCGAGATTATACAAAGAATTGGATGCATGGTCGAGGATGAAGAAGGGAAGGTGTACCAGAAGGGAGCATGTGGTGGTTTTGGGAAAGGAAATTTTTCTGAGCTGTTTAAATCCATCGAGGAATATGAGAAAACCTTAGAAGCTAAAAGAACTGCATGA
modifications: GmHPPDm-F372A-F383W-02 Nucleotide Sequence
notes: vector DBN11749
B2: GmHPPDm-F372A-02: nucleotide sequence encoding Glycine max HPPD with F372A; vector DBN11747 (nucleic acid)
DNA: B1 DNA with G1307T, G1308C
modifications: GmHPPDm-F372A-02 Nucleotide Sequence
notes: vector DBN11747

Experiments:
Assay type in all cases: in vivo
[1] = tested on: Arabidopsis thaliana T1 plants; test: Isoxaflutole tolerance of transgenic Arabidopsis thaliana T1 plants (spray, bleached leaf area grade, damage score); set-up: Scores (pesticide damage): scale not given here; conditions: spray, Arabidopsis thaliana T1 plants; for Classification and statistics of the grade of pesticide damage: Grade 0 (number of plants) / Classification and statistics of the grade of pesticide damage: Grade 1 (number of plants) / Classification and statistics of the grade of pesticide damage: Grade 2 (number of plants) / Classification and statistics of the grade of pesticide damage: Grade 3 (number of plants): 16 plants
Outline: (§1)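 T1 transformants selected by glufosinate; 18-day-old plants, with empty-vector and wild-type controls, sprayed with topramezone (25–200 g ai/ha), isoxaflutole (35–280 g ai/ha) or mesotrione (52.5–420 g ai/ha), water as 0×. Bleached leaf area fraction scored at 7 DAT as grades 0–3.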

[2] = tested on: Arabidopsis thaliana T1 plants; test: Mesotrione tolerance of transgenic Arabidopsis thaliana T1 plants (spray, bleached leaf area grade, damage score); set-up: Scores: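 damage score 0-100 computed as Σ(N×S)/(T×M)×100 over grades 0-3 with higher meaning more damage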; conditions: Arabidopsis thaliana T1 plants; for Grade 0 (classification and statistics of the grade of pesticide damage; number of plants) / Grade 1 (classification and statistics of the grade of pesticide damage; number of plants) / Grade 2 (classification and statistics of the grade of pesticide damage; number of plants) / Grade 3 (classification and statistics of the grade of pesticide damage; number of plants): 16 plants
Outline: as §1

[3] = tested on: Arabidopsis thaliana T1 plants; test: Topramezone tolerance of transgenic Arabidopsis thaliana T1 plants (spray, bleached leaf area grade, damage score); conditions: 7 DAT, Table 4; for Classification and statistics of the grade of pesticide damage: Grade 0 / Classification and statistics of the grade of pesticide damage: Grade 1 / Classification and statistics of the grade of pesticide damage: Grade 2 / Classification and statistics of the grade of pesticide damage: Grade 3: number of plants; for Scores: pesticide damage score 0-100
Outline: as §1

[4] = isoxaflutole 35 g ai/ha (0.5x field concentration)
[5] = isoxaflutole 70 g ai/ha (1x field concentration)

| Molecule | Resistance evaluation [1, 4] | Scores (pesticide damage) [1, 4] | Classification and statistics of the grade of pesticide damage: Grade 0 (number of plants) [1, 4] | Classification and statistics of the grade of pesticide damage: Grade 1 (number of plants) [1, 4] | Classification and statistics of the grade of pesticide damage: Grade 2 (number of plants) [1, 4] | Classification and statistics of the grade of pesticide damage: Grade 3 (number of plants) [1, 4] | Resistance evaluation [1, 5] | Scores (pesticide damage) [1, 5] | Classification and statistics of the grade of pesticide damage: Grade 0 (number of plants) [1, 5] | Classification and statistics of the grade of pesticide damage: Grade 1 (number of plants) [1, 5] | Classification and statistics of the grade of pesticide damage: Grade 2 (number of plants) [1, 5] | Classification and statistics of the grade of pesticide damage: Grade 3 (number of plants) [1, 5] | Resistance evaluation ([2]; mesotrione 52.5 g ai/ha) | Scores ([2]; mesotrione 52.5 g ai/ha) | Grade 0 (classification and statistics of the grade of pesticide damage; number of plants) ([2]; mesotrione 52.5 g ai/ha) | Grade 1 (classification and statistics of the grade of pesticide damage; number of plants) ([2]; mesotrione 52.5 g ai/ha) | Grade 2 (classification and statistics of the grade of pesticide damage; number of plants) ([2]; mesotrione 52.5 g ai/ha) | Grade 3 (classification and statistics of the grade of pesticide damage; number of plants) ([2]; mesotrione 52.5 g ai/ha) | Resistance evaluation ([2]; mesotrione 105 g ai/ha) | Scores ([2]; mesotrione 105 g ai/ha) | also measured |
| --- | --- | --- | --- | --- | --- | --- | --- | --- | --- | --- | --- | --- | --- | --- | --- | --- | --- | --- | --- | --- | --- |
| B1 | Highly | 15 | 9 | 7 | 0 | 0 | Poorly | 40 | 4 | 6 | 5 | 1 | Moderately | 23 | 6 | 9 | 1 | 0 | Poorly resistant | 46 | Grade 0 (classification and statistics of the grade of pesticide damage; number of plants) ([2]; mesotrione 105 g ai/ha): 2; Grade 1 (classification and statistics of the grade of pesticide damage; number of plants) ([2]; mesotrione 105 g ai/ha): 7; Grade 2 (classification and statistics of the grade of pesticide damage; number of plants) ([2]; mesotrione 105 g ai/ha): 6; Grade 3 (classification and statistics of the grade of pesticide damage; number of plants) ([2]; mesotrione 105 g ai/ha): 1; Classification and statistics of the grade of pesticide damage: Grade 0 ([3]; topramezone 25 g ai/ha (1×)): 9; Classification and statistics of the grade of pesticide damage: Grade 1 ([3]; topramezone 25 g ai/ha (1×)): 7; Classification and statistics of the grade of pesticide damage: Grade 2 ([3]; topramezone 25 g ai/ha (1×)): 0; Classification and statistics of the grade of pesticide damage: Grade 3 ([3]; topramezone 25 g ai/ha (1×)): 0; Classification and statistics of the grade of pesticide damage: Grade 0 ([3]; topramezone 100 g ai/ha (4×)): 5; Classification and statistics of the grade of pesticide damage: Grade 1 ([3]; topramezone 100 g ai/ha (4×)): 6; Classification and statistics of the grade of pesticide damage: Grade 2 ([3]; topramezone 100 g ai/ha (4×)): 4; Classification and statistics of the grade of pesticide damage: Grade 3 ([3]; topramezone 100 g ai/ha (4×)): 1; Scores ([3]; topramezone 25 g ai/ha (1×)): 15; Scores ([3]; topramezone 100 g ai/ha (4×)): 35; Resistance evaluation ([3]; topramezone 25 g ai/ha (1×)): highly; Resistance evaluation ([3]; topramezone 100 g ai/ha (4×)): poorly |
| B2 | Poorly | 65 | 0 | 3 | 11 | 2 | Non-resistant | 100 | 0 | 0 | 0 | 16 | Poorly resistant | 67 | 0 | 2 | 12 | 2 | Non-resistant | 100 | Grade 0 (classification and statistics of the grade of pesticide damage; number of plants) ([2]; mesotrione 105 g ai/ha): 0; Grade 1 (classification and statistics of the grade of pesticide damage; number of plants) ([2]; mesotrione 105 g ai/ha): 0; Grade 2 (classification and statistics of the grade of pesticide damage; number of plants) ([2]; mesotrione 105 g ai/ha): 0; Grade 3 (classification and statistics of the grade of pesticide damage; number of plants) ([2]; mesotrione 105 g ai/ha): 16; Classification and statistics of the grade of pesticide damage: Grade 0 ([3]; topramezone 25 g ai/ha (1×)): 0; Classification and statistics of the grade of pesticide damage: Grade 1 ([3]; topramezone 25 g ai/ha (1×)): 12; Classification and statistics of the grade of pesticide damage: Grade 2 ([3]; topramezone 25 g ai/ha (1×)): 4; Classification and statistics of the grade of pesticide damage: Grade 3 ([3]; topramezone 25 g ai/ha (1×)): 0; Classification and statistics of the grade of pesticide damage: Grade 0 ([3]; topramezone 100 g ai/ha (4×)): 0; Classification and statistics of the grade of pesticide damage: Grade 1 ([3]; topramezone 100 g ai/ha (4×)): 0; Classification and statistics of the grade of pesticide damage: Grade 2 ([3]; topramezone 100 g ai/ha (4×)): 0; Classification and statistics of the grade of pesticide damage: Grade 3 ([3]; topramezone 100 g ai/ha (4×)): 16; Scores ([3]; topramezone 25 g ai/ha (1×)): 42; Scores ([3]; topramezone 100 g ai/ha (4×)): 100; Resistance evaluation ([3]; topramezone 25 g ai/ha (1×)): poorly; Resistance evaluation ([3]; topramezone 100 g ai/ha (4×)): non-resistant (non-resistant plants (scores 68-100)) |
